The values below come from PMC6435475, “Structural and functional characterisation of the entry point to pyocyanin biosynthesis in Pseudomonas aeruginosa defines a new 3-deoxy-D-arabino-heptulosonate 7-phosphate synthase subclass” (Bioscience Reports, 2018).

Series [1] relates to C=C(OP(=O)(O)O)C(=O)O. The experiment in a line: purified protein. Conditions: E4P 150 μM, Co2+ 100 μM, pH 7.5, 37 °C.
Excerpt: (§1) initial-rate UV-Vis spectrophotometric assay on PaeDAH7PS^PA1901 (type II DAH7PS, phzC)
Series [2] concerns O=C[C@H](O)[C@H](O)COP(=O)(O)O. Put plainly: purified protein. Conditions: PEP 150 μM, Co2+ 100 μM, pH 7.5, 37 °C.
Excerpt: as §1
Series [3] concerns the molecule itself. The experiment in a line: crystal structure; microbatch crystallisation, protein 3-5 mg/ml (67-112 uM), 0.2 M sodium fluoride, 1 mM cobalt chloride, 1 mM PEP, 18% PEG 3350, 278 K; space group C222(1), two chains in the asymmetric unit, tetramer by a two-fold crystallographic symmetry operation.
Series [4] concerns the molecule itself. Put plainly: SEC-SAXS; injection concentration 8.0 mg/ml (180 uM; also 5.0 mg/ml), Superdex S200, 50 mM bis-tris propane pH 7.5, 100 uM cobalt chloride, 200 uM PEP, 5% glycerol, 293 K; elution peak deconvoluted into two Gaussian components (peaks A and B). In general terms: In gel filtration, larger molecules generally elute earlier.

By Km is commonly meant the concentration of substrate that gives half-maximal velocity. Usually kcat stands for the maximal rate divided by the concentration of active sites. A word on the kcat/Km: it is the second-order rate constant that governs catalysis at low substrate concentration. A word on the stoichiometry N: it is a count of units in the complex or per binding partner.

Take “PaeDAH7PS^PA1901 (type II DAH7PS, phzC) (Pseudomonas aeruginosa PAO1)”: in series [1], the Km came to 17 ± 1 µM, the kcat is 19.8 ± 0.4 s⁻¹ and the kcat/Km was determined as 1.16e+06 ± 100000 M⁻¹ s⁻¹. Also, in series [2], the Km was found to be 16 ± 3 µM, the kcat was determined as 19.8 ± 0.4 s⁻¹ and the kcat/Km came out at 1.24e+06 ± 150000 M⁻¹ s⁻¹.

B1: PaeDAH7PS^PA1901 (3-deoxy-D-arabino-heptulosonate 7-phosphate synthase encoded by phzC, Pseudomonas aeruginosa PAO1) (enzyme)
chain: MDDLLQRVRRCEALQQPEWGDPSRLRDVQAYLRGSPALIRAGDILALRATLARVARGEALVVQCGDCAEDMDDHHAENVARKAAVLELLAGALRLAGRRPVIRVGRIAGQYAKPRSKPHEQVGEQTLPVYRGDMVNGREAHAEQRRADPQRILKGYAAARNIMRHLGWDAASGQEANASPVWTSHEMLLLDYELSMLREDEQRRVYLGSTHWPWIGERTRQVDGAHVALLAEVLNPVACKVGPEIGRDQLLALCERLDPRREPGRLTLIARMGAQKVGERLPPLVEAVRAAGHPVIWLSDPMHGNTIVAPCGNKTRLVRSIAEEVAAFRLAVSGSGGVAAGLHLETTPDDVTECVADSSGLHQVSRHYTSLCDPRLNPWQALSAVMAWSGAEAIPSATFPLETVA
notes: 3-deoxy-D-arabino-heptulosonate 7-phosphate synthase (type II DAH7PS) encoded by phzC, ORF PA1901 (duplicated as PA4212), Pseudomonas aeruginosa PAO1; the ORF was amplified from gDNA; residues up to 405 are named; measured mass of a single chain 44470 Da (calculated 44468 Da); Homodimer in solution at low concentration (AUC, SEC-SAXS); homotetramer in the crystal and at high concentration in …
B1: the “stoichiometry N” value in series [3] came to 4; in series [4], 2.
